Assay results as given in patent US20160297875A1 (CASE WESTERN RESERVE UNIVERSITY, published 2016).

Columns and labels:
[1] = biological target: human platelet CD36 (human) (UniProt P16671); experiment: cell-based or functional assay
[2] = biological target: T1, BSA (bovine, UniProt P02769 25-607); experiment: plate binding assay, wells coated with BSA (10 µg/mL), detection with anti-human MRP-14 antibody and HRP-conjugated secondary antibody at 450 nm
T1 construct: also called bovine serum albumin
Protocol: High-protein binding plate (Nunc, Thermo Scientific) was coated with purified CD36 (Abcam) or BSA (10 μg/mL) overnight at 4° C. After blocking with 10% BSA at RT for 2 hours, purified human MRP-14 protein (0-2.5 μg/ml) was added and incubated for 2 hours at RT. After washing, plate was incubated with anti-human MRP-14 antibody for one hour followed by washing and incubation with HRP-conjugated secondary antibody that was detected with TMB substrate (Thermo Scientific) at 450 nm.

Chain of human platelet CD36 (human) (P16671 2-472 limits assumed): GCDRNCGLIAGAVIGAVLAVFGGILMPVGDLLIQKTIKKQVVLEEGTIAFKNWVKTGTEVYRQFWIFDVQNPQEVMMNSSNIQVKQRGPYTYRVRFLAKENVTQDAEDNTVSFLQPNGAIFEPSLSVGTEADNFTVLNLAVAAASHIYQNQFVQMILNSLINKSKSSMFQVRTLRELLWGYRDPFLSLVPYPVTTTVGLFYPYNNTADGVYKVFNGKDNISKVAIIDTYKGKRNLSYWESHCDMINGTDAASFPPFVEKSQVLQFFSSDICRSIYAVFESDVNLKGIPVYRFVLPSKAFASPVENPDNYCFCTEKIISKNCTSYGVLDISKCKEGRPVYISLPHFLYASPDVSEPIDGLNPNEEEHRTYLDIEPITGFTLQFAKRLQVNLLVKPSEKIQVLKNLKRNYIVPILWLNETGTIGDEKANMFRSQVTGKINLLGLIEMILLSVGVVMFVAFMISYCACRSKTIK
T1 sequence (P02769 25-607 limits assumed): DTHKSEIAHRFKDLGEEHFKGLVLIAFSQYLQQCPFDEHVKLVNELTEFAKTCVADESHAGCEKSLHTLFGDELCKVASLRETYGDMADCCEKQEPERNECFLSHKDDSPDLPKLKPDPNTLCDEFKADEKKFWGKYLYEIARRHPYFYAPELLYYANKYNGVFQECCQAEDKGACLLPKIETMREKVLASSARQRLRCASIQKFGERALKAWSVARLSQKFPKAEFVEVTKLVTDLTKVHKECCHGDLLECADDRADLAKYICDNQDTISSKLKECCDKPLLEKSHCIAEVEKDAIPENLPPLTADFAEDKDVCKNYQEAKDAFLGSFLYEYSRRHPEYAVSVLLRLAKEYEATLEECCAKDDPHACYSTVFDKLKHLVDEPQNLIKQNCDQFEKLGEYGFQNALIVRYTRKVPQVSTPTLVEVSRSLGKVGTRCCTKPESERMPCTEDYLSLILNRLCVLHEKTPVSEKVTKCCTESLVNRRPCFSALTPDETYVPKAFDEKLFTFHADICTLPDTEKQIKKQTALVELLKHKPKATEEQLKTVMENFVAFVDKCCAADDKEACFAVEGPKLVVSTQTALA

A percentage of inhibition of shear-induced thrombus formation in anticoagulated human whole blood (antibody 10 µg/ml) [1] of 53.8% was found for “anti-human CD36 monoclonal antibody (clone FA6-152)” in this work.

B1: purified, recombinant human MRP-14 (ligand, UniProt P06702 1-114, looked up)
chain: MTCKMSQLERNIETIINTFHQYSVKLGHPDTLNQGEFKELVRKDLQNFLKKENKNEKVIEHIMEDLDTNADKQLSFEEFIMLMARLTWASHEKMHEGDEGPGHHHKPGLGEGTP
notes: Bought protein; also called purified MRP-14; purified human MRP-14 protein
B1: no binding (tested: 0-2.5 µg/ml MRP-14) [2].
